From article PMC2859121 (Cell host & microbe, 2010)
Positions count from the first letter of the chain named. * marks the point of attachment. Cam = NC(=O)C*

B1: tetherin(47–159) (domain or fragment, human, UniProt Q10589 47-159, looked up)
chain: KANSEACRDGLRAVMECRNVTHLLQQELTEAQKGFQDVEAQAATCNHTVMALMASLDAEKAQGQKKVEELEGEITTLNHKLQDASAEVERLRRENQVLSVRIADKKYYPSSQD
B2: tetherin(47–159) set 3 mutant (domain or fragment, human, UniProt Q10589 47-159, looked up)
chain: B1 chain with K1A, N3G, E5A, R8S, D9A, R12S
B3: tetherin(47–159), reduced with DTT and cysteines blocked with iodoacetamide (domain or fragment, human, UniProt Q10589 47-159, looked up)
chain: B1 chain
modifications: cysteines blocked with iodoacetamide after reduction with DTT
B4: tetherin(47–159)_set2 (domain or fragment, human, UniProt Q10589 47-159, looked up)
chain: B1 chain with L81K, A84Y, V88E, L91E
B5: tetherin(80–147) (domain or fragment, human, UniProt Q10589 80-147, looked up)
chain: GFQDVEAQAATCNHTVMALMASLDAEKAQGQKKVEELEGEITTLNHKLQDASAEVERLRRENQVLSVR
B6: tetherin(80–147), reduced with DTT and cysteines blocked with iodoacetamide (domain or fragment, human, UniProt Q10589 80-147, looked up)
chain: GFQDVEAQAATC(Cam)NHTVMALMASLDAEKAQGQKKVEELEGEITTLNHKLQDASAEVERLRRENQVLSVR

Columns and labels:
[1] = target: the molecule itself; experiment: SDS-PAGE under reducing and non-reducing conditions
[2] = target: the molecule itself; experiment: cross-linking

Protein | stoichiometry N [1] | stoichiometry N [2] | further results
B1 | 2 |  | 
B2 | 2 |  | 
B3 |  | 2 | 
B4 |  |  | binding result [1]: binds
B5 | 2 |  | 
B6 |  | 2 | 
